One assay addresses T1, Rhesus ANG2 (rhesus, UniProt F6QXG0 19-496).
T1 sequence: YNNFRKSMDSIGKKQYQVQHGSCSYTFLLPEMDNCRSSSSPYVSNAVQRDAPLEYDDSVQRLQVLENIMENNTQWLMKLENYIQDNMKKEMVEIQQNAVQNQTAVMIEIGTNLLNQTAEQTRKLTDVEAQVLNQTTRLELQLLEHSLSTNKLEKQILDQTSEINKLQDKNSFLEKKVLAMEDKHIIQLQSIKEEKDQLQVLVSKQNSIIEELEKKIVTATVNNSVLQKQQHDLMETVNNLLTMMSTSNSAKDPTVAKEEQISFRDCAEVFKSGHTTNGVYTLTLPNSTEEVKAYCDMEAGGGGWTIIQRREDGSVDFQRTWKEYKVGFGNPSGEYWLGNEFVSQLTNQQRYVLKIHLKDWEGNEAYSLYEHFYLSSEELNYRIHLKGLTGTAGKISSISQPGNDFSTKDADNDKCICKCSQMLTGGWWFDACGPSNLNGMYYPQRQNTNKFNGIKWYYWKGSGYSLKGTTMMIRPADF
Description: SPR, Biacore T200, mean of three experiments. How it is done: (§1) The antibody was diluted to 1 μg/mL and was captured onto channel 2 for 30 s, and channel 1 was the blank control channel. The gradient-diluted Human ANG2, Rhesus ANG2, Rabbit ANG2, Rat ANG2 and Mouse ANG2 were sequentially injected into channels 1 and 2 of the chip, from low to high concentrations (0-32 nM), at a flow rate of 30 μL/min, with one concentration per cycle, and with 180 s association time and 1200 s dissociation time at 25° C. Finally, the chip was regenerated using Glycine pH 1.5 at 30 μL/min for 30 s. The affinity assay was repeated three times.
(SPR reads the build-up and loss of mass on a sensor chip optically.)

A further assay addresses T2, human Ang2 (human, UniProt O15123 19-496, limits assumed).
T2 construct: also called hAng2; h Ang2
T2 sequence: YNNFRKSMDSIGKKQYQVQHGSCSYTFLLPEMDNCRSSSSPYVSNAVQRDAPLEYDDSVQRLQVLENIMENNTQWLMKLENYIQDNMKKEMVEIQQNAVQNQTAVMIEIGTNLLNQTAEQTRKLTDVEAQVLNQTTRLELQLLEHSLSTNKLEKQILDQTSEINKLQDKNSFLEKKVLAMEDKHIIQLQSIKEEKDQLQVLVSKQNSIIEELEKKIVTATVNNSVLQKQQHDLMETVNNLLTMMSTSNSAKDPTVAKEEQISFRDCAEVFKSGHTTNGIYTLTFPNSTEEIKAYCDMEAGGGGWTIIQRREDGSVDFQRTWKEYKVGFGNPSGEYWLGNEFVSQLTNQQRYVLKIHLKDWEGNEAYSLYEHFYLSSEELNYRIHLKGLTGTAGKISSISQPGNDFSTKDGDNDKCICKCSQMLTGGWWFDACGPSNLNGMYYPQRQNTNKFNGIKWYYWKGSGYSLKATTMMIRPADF
Description: SPR, Biacore T200, mean of three experiments. How it is done:
as §1

For assay [1], the target named is T3, recombinant biotinylated hAngiopoietin-2 protein (R&D, Cat. No.: BT623B/CF) (human, UniProt O15123 19-496, limits assumed, biotinylated (sites not given)).
T3 construct: Bought protein; also called Biotin Ang2; human biotin Ang2 protein
T3 sequence: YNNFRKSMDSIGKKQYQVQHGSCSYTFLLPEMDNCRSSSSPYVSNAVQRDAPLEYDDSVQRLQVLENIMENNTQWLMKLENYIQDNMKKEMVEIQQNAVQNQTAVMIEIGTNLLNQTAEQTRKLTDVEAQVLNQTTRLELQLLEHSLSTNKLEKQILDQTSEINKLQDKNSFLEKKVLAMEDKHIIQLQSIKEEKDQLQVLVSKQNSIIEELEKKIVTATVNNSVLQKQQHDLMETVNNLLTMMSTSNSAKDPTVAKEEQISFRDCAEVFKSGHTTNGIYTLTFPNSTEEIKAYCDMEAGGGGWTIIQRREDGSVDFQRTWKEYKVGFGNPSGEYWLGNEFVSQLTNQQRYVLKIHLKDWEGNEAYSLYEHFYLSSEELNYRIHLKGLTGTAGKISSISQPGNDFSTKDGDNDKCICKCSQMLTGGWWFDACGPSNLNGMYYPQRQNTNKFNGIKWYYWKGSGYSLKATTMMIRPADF
Put plainly: ELISA: biotin Ang2 (R&D BT623B/CF) captured on coated streptavidin (SA), antibody titrated, anti-human IgG-HRP, OD450-OD620, GraphPad fit. How it is done:
The binding of 81H10 and hz81H10.4 of the present invention to human biotin Ang2 protein was measured in an SA-biotin Ang2-based ELISA assay.
SA protein (Thermo Fisher) was diluted to 1 μg/ml with PBS, and was coated onto a microtiter plate at 100 μl/well at 4° C. overnight. After three washes with PBST, the plate was blocked with 5% BSA for 1 h. Biotin Ang2 (R&D, Cat. No. BT623B/CF) was incubated at a concentration of 0.5 μg/ml for 1 h. Gradient diluted antibodies (maximum concentration 20 nM, 1:3 serial dilution) were added to the microtiter plate and incubated for 2 h, and the plate was washed three times with PBST. […] Then the plate was washed for 6 times with PBST. Chromogenic reaction was performed with 100 ul TMB and terminated with 100 ul 2N sulfuric acid. The reading of OD₄₅₀-OD₆₂₀ was taken by microplate reader. The concentration-dependent curve was fitted with GraphPad based on the OD₄₅₀-OD₆₂₀.
(In an ELISA, binding on a coated surface is turned into a signal by an enzyme label.)

A further assay deals with T4, Mouse ANG2 (mouse, UniProt O35608 19-496, limits assumed).
T4 sequence (looked up): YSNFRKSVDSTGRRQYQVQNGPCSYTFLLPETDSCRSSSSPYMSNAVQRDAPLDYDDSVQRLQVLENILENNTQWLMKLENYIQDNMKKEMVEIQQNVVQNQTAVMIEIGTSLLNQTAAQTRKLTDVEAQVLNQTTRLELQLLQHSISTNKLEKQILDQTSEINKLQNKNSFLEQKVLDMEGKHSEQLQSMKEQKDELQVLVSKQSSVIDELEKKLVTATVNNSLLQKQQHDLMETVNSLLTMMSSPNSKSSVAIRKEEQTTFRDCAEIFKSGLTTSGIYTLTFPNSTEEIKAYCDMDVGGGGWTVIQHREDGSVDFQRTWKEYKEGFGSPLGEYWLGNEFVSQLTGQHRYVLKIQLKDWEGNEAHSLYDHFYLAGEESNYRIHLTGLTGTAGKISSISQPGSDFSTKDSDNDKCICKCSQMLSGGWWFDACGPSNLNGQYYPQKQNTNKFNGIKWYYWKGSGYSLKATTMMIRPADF
Description: SPR, Biacore T200, antibody captured on Protein G chip. How it is done: as §1

The target in another assay is T5, Rat ANG2 (rat, UniProt O35462 19-496, limits assumed).
T5 sequence (looked up): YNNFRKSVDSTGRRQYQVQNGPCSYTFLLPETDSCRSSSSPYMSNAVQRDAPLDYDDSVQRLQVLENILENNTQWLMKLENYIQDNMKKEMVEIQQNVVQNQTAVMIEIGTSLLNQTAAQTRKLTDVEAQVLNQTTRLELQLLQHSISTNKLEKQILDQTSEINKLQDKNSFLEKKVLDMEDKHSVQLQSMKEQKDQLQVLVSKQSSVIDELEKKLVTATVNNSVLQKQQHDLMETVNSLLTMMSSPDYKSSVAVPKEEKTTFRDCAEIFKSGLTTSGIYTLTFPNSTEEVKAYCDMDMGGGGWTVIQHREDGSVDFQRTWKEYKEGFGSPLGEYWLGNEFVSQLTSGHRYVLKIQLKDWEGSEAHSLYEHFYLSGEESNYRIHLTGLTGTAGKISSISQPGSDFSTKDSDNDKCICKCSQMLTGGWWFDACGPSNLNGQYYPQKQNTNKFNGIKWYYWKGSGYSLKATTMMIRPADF
Described as above. How it is done:
as §1

B1: humanized antibody hz81H10.4 (antibody, human IgG1, kappa, V domains shown)
VH: EVQLVESGGGLVKPGGSLRLSCAASGFTFSNYWMNWVRQAPGKGLEWVAEIRLKSNNYATHYAESVKGRFTISRDVSKNTVYLQMNSLKTEDTAVYYCTDTAPFAYWGQGTLVTVSS
VL: DIQMTQSPSSLSASVGDRVTITCKASQDVGTDVAWYQQKPGKAPKLLIYWASTRHTGVPSRFSGSGSGTDFTLTISSLQPEDFATYYCQQYSSYPLTFGGGTKVEIKR
notes: also called IBI335
On to B1, for which the Kd (as a rule, a measure of binding affinity in units of concentration) with Rhesus ANG2 was found to be 0.146 nM; in the assay with human Ang2, 0.0457 nM. For the same molecule, the EC50 (in general, the concentration needed to bring the measured effect to its halfway point) in assay [1] was found to be 0.0212 nM. Moreover, the binding result with Mouse ANG2 and with Rat ANG2 was “no binding (tested: 0-32 nM)” in each case.
